Results from US20250262210A1 (TRUSTEES OF COLUMBIA UNIVERSITY IN THE CITY OF NEW YORK, published 2025).

How the values were obtained:
Experiment in all cases: IP/MS, LZTR1 R810W-FLAG, U87
TRAPPC11 = molecular target: T1, TRAPPC11 (human, UniProt Q7Z392 1-1133, limits assumed)
T1 sequence (looked up): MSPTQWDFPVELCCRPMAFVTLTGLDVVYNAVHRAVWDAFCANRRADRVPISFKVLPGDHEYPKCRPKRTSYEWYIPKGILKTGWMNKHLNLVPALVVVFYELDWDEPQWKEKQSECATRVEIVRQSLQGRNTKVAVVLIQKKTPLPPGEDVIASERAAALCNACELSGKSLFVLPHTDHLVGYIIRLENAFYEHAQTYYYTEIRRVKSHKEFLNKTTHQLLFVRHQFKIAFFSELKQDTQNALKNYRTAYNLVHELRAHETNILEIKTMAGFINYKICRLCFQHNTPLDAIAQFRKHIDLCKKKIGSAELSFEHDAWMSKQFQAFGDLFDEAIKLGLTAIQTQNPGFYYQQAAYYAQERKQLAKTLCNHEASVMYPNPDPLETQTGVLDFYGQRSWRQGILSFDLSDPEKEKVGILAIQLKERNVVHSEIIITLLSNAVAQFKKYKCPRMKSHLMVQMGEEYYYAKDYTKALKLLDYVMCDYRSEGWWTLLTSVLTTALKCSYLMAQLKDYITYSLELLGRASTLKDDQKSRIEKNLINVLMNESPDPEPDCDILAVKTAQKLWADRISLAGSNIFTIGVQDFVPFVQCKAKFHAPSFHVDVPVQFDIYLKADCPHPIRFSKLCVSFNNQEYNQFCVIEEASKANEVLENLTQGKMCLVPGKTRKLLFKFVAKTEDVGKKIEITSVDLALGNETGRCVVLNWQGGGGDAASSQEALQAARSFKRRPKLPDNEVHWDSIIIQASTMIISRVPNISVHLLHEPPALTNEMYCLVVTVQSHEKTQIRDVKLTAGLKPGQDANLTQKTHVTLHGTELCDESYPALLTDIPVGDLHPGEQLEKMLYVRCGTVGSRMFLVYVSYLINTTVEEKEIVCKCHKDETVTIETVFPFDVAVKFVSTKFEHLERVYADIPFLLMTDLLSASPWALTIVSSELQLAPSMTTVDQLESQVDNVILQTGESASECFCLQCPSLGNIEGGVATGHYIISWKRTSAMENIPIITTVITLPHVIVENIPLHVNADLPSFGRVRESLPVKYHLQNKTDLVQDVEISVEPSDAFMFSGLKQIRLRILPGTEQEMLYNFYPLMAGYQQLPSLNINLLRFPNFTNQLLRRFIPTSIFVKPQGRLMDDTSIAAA
In short: (§1)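 Extracted peptides in 3% acetonitrile/0.1% formic acid ran on a 50 cm C18 column into an Orbitrap Fusion, with MaxQuant identification and spectral counting.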

FBX038 = molecular target: T2, FBX038 (human, UniProt Q6PIJ6 1-1188, limits assumed)
T2 construct: Printed with a zero; probably FBXO38
T2 sequence (looked up): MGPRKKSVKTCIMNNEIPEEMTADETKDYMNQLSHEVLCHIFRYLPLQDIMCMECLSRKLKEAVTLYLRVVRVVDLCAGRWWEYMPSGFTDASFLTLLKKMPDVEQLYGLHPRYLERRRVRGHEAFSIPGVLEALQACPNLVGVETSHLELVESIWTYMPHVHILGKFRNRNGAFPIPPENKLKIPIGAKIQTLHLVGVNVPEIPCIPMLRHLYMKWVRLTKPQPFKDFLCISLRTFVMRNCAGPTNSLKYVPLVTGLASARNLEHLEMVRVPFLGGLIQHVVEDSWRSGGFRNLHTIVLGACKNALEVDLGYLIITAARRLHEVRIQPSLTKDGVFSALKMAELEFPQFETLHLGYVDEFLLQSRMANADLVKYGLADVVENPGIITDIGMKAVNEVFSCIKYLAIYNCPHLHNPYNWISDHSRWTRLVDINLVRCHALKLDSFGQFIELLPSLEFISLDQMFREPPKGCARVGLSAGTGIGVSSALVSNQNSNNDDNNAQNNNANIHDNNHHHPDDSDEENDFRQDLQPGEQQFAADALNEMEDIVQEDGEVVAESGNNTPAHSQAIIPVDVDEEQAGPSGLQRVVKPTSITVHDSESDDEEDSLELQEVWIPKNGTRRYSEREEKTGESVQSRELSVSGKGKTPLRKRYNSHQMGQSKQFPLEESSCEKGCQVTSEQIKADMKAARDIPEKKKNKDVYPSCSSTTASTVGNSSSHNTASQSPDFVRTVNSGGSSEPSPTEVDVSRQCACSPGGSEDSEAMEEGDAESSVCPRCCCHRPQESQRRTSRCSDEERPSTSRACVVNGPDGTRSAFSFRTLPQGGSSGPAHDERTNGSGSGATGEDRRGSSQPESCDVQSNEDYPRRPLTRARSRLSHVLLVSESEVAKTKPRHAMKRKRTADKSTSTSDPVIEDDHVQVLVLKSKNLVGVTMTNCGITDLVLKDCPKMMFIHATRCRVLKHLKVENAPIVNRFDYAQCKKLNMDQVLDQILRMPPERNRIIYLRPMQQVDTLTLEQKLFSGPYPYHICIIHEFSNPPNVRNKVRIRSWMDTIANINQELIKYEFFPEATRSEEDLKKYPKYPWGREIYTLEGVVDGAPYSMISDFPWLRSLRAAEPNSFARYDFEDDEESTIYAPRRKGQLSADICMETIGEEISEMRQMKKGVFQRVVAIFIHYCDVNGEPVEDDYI
In short: as §1

HELZ = HELZ (human, UniProt P42694 1-1942, limits assumed)
Sequence of HELZ (P42694 whole entry): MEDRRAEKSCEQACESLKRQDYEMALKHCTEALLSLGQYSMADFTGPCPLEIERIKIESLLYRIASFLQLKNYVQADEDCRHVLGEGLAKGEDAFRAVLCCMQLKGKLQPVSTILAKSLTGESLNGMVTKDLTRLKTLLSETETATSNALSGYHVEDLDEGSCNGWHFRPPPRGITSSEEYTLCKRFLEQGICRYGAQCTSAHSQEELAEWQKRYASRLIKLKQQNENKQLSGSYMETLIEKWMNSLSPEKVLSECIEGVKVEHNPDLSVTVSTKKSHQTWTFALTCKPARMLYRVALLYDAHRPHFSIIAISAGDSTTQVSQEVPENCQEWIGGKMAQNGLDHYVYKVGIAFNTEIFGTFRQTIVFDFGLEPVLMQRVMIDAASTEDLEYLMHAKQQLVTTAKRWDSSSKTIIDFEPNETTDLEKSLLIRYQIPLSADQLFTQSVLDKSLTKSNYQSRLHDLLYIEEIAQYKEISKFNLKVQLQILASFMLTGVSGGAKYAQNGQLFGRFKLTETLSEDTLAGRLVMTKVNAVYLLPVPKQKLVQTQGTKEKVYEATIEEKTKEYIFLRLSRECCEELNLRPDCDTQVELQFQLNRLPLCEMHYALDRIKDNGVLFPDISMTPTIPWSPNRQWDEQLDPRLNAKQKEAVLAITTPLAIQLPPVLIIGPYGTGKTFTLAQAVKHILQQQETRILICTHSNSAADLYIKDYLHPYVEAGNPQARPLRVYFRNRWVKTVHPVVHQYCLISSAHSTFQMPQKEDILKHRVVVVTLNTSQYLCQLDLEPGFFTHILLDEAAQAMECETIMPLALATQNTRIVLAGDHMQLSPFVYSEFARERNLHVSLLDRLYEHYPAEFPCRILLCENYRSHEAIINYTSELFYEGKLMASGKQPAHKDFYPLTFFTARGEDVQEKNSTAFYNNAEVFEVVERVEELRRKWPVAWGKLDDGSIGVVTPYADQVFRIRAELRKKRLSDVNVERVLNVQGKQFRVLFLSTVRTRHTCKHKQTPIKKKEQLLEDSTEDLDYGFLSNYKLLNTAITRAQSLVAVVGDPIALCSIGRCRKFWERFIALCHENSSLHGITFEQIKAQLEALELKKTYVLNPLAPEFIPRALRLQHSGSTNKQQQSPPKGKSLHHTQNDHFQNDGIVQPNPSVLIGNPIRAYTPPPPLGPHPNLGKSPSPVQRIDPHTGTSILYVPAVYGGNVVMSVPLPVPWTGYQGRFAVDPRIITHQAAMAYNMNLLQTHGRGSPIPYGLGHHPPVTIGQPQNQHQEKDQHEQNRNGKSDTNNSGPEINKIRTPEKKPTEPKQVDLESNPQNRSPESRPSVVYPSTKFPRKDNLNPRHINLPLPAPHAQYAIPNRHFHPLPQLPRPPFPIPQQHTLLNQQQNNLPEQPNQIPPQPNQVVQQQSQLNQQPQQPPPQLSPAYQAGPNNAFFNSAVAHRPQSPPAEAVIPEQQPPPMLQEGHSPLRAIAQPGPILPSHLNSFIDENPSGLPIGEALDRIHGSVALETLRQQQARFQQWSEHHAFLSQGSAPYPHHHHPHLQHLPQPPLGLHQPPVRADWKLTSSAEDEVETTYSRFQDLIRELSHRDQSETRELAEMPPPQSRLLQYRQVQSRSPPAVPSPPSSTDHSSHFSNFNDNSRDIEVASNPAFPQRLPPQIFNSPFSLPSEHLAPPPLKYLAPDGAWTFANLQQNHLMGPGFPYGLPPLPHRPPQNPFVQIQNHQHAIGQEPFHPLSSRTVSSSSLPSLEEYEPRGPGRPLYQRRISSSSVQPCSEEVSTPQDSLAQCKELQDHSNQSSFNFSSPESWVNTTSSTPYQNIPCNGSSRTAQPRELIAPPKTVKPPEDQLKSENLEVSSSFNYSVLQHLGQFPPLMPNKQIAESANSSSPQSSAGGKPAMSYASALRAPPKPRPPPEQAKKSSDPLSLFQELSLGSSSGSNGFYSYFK
In short: as §1

Measured: binding result

B1: LZTR1 R810W-FLAG (other, human, UniProt Q8N653 1-840, looked up)
chain: MAGPGSTGGQIGAAALAGGARSKVAPSVDFDHSCSDSVEYLTLNFGPFETVHRWRRLPPCDEFVGARRSKHTVVAYKDAIYVFGGDNGKTMLNDLLRFDVKDCSWCRAFTTGTPPAPRYHHSAVVYGSSMFVFGGYTGDIYSNSNLKNKNDLFEYKFATGQWTEWKIEGRLPVARSAHGATVYSDKLWIFAGYDGNARLNDMWTIGLQDRELTCWEEVAQSGEIPPSCCNFPVAVCRDKMFVFSGQSGAKITNNLFQFEFKDKTWTRIPTEHLLRGSPPPPQRRYGHTMVAFDRHLYVFGGAADNTLPNELHCYDVDFQTWEVVQPSSDSEVGGAEVPERACASEEVPTLTYEERVGFKKSRDVFGLDFGTTSAKQPTQPASELPSGRLFHAAAVISDAMYIFGGTVDNNIRSGEMYRFQFSCYPKCTLHEDYGRLWESRQFCDVEFVLGEKEECVQGHVAIVTARSRWLRRKITQARERLAQKLEQEAAPVPREAPGVAAGGARPPLLHVAIREAEARPFEVLMQFLYTDKIKYPRKGHVEDVLLIMDVYKLALSFQLCRLEQLCRQYIEASVDLQNVLVVCESAARLQLSQLKEHCLNFVVKESHFNQVIMMKEFERLSSPLIVEIVRRKQQPPPRTPLDQPVDIGTSLIQDMKAYLEGAGAEFCDITLLLDGHPRPAHKAILAARSSYFEAMFRSFMPEDGQVNISIGEMVPSRQAFESMLRYIYYGEVNMPPEDSLYLFAAPYYYGFYNNRLQAYCKQNLEMNVTVQNVLQILEAADKTQALDMKRHCLHIIVHQFTKVSKLPTLWSLSQQLLLDIIDSLASHISDKQCAELGADI
notes: Stably expressed in U87 cells by lentivirus; also called LZTR1-FLAG-R810W; LZTR1 RW; not shown: FLAG tag
binds: all assays above
